Target: GST-DLG1 PDZ domains 1-2 fusion protein (human) (UniProt Q12959)
Assay: competition G assay, 100 uM unlabeled 8-mer against 20 uM biotin-labeled AA2L on GST-DLG1

Question: For “eight amino acid CLASP-2 peptide MTSSSSVV (unlabeled)”, which percent inhibition is on record?
Answer: > 50%
